Source: the supplement of paper PMC10065799, “High-throughput profiling of sequence recognition by tyrosine kinases and SH2 domains using bacterial peptide display” (eLife, 2023)

Key:
EPHB2 = EPHB2 (UniProt P29323); assay: phosphorylation enrichment, bacterial display (enrichment ratio); higher = better substrate or ligand; peptides without Tyr show the background
Fes = Fes (UniProt P07332); assay: as above
Fyn = Fyn (UniProt P06241); assay: as above
Jak2 = Jak2 (UniProt O60674); assay: as above
MERTK = MERTK (UniProt Q12866); assay: as above
Chain of MERTK (Q12866 whole entry, looked up): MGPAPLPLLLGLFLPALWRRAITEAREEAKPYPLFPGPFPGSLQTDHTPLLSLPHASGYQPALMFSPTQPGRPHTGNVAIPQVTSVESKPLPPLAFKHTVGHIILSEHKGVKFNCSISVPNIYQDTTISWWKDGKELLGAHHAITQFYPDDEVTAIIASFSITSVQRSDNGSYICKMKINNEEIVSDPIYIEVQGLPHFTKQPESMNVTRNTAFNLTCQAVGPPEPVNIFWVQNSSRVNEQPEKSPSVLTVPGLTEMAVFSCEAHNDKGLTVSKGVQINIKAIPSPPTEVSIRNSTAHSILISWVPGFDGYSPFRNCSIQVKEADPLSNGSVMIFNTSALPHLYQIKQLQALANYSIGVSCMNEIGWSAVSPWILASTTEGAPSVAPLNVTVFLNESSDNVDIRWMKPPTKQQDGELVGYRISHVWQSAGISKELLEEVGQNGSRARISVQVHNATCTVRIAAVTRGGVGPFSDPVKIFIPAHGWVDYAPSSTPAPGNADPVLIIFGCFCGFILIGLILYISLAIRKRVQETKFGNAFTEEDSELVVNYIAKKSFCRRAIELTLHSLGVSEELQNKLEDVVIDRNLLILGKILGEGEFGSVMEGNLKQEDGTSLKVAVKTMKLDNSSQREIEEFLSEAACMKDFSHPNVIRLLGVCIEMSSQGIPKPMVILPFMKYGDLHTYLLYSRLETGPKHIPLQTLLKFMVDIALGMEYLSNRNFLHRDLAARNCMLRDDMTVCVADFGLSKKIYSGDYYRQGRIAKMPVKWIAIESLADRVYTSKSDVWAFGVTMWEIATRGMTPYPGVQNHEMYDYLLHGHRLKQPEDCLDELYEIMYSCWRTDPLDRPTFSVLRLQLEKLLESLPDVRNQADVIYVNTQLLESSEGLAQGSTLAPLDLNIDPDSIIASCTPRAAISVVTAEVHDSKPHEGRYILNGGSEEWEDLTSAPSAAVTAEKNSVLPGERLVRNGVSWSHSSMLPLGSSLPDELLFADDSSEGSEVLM

FGFR3 = FGFR3 (UniProt P22607); assay: as above
Fer (mouse) = assay: as above
c-Abl (mouse) = assay: as above
FGFR1 = FGFR1 (UniProt P11362); assay: as above
AncSZ = assay: as above
c-Src = assay: as above
Hck = Hck (UniProt P08631); assay: as above
Chain of Hck (P08631 whole entry, looked up): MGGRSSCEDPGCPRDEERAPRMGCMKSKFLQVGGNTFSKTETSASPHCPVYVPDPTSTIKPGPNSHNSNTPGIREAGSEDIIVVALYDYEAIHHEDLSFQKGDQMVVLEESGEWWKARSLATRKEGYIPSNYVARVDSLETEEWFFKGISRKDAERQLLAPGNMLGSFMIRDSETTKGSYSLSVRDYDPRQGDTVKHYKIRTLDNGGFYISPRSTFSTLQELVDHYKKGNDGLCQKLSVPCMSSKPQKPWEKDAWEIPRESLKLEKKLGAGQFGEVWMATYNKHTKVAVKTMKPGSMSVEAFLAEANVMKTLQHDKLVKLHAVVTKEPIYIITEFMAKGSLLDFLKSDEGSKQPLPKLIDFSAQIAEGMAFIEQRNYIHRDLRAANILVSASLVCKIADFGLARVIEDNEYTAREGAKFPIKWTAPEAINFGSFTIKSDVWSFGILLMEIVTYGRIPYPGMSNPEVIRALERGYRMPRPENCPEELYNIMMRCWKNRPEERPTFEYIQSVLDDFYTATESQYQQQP

EPHB1 = EPHB1 (UniProt P54762); assay: as above
Chain of EPHB1 (P54762 whole entry, looked up): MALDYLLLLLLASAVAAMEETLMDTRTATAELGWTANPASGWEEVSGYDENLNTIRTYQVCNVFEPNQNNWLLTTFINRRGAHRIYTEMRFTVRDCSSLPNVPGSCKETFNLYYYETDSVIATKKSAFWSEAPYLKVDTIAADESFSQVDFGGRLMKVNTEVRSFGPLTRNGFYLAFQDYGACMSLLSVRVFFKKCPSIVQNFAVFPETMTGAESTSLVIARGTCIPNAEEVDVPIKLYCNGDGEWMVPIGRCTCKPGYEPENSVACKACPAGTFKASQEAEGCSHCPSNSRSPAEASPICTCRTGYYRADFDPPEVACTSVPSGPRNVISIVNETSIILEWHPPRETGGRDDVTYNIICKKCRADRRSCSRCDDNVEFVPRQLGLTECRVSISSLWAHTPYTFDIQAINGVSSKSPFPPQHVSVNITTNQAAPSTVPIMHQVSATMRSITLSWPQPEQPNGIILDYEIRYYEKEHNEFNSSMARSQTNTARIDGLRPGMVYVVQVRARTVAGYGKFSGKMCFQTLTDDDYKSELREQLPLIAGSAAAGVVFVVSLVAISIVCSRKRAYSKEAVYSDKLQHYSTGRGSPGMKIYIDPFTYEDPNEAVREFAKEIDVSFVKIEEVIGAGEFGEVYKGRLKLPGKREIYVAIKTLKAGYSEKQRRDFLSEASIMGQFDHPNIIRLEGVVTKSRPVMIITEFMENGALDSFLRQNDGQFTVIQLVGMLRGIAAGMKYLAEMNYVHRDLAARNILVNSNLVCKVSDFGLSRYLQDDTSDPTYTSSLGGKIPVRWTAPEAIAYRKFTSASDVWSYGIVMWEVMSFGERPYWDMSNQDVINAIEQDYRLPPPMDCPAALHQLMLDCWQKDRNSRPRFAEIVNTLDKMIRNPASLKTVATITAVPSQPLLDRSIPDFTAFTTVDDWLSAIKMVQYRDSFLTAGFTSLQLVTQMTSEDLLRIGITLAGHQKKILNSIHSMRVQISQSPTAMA

SHP2-C SH2 = assay: SH2 binding enrichment of the phosphorylated peptide, bacterial display (enrichment ratio); higher = better substrate or ligand; peptides without Tyr show the background
c-Src SH2 = assay: as above
Grb2 SH2 = Grb2 SH2 (UniProt P62993); assay: as above
Chain of Grb2 SH2 (P62993 whole entry, looked up, the tested form may be a part): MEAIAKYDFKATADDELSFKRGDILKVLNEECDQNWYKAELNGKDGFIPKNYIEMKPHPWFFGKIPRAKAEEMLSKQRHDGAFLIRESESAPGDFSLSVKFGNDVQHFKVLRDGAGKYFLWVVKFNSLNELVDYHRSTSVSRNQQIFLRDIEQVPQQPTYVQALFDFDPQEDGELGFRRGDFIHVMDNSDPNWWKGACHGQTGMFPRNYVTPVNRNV
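Throughout, for SH2 binding enrichment of the phosphorylated peptide, bacterial display: peptide library displayed on the E. coli surface as eCPX fusions, selected cells deep-sequenced, score is each peptide's frequency after selection divided by its frequency in the input.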
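Throughout, for phosphorylation enrichment, bacterial display: 11-residue human phosphosite peptides and single-mutation variants displayed on the E. coli surface, counted by deep sequencing, each peptide's frequency after selection divided by its frequency in the unselected input library; frequency after pTyr selection over input frequency; kinase dosed for 20-30% of maximal phosphorylation in three min.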

Chain of Fyn (P06241 whole entry, looked up): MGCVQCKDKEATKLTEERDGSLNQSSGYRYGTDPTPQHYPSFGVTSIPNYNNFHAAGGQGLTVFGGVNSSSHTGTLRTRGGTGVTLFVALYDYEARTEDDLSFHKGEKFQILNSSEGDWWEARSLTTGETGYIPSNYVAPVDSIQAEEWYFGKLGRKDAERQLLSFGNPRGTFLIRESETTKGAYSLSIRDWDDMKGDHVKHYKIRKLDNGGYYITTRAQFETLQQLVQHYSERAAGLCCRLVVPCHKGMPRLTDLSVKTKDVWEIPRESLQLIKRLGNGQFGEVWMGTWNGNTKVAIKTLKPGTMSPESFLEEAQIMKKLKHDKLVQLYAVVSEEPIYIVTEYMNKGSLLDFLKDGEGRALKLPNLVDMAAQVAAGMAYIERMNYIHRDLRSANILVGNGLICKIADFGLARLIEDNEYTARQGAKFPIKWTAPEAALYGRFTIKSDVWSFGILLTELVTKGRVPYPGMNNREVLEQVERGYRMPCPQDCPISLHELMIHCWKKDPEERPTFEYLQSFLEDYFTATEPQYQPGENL
Chain of EPHB2 (P29323 whole entry, looked up): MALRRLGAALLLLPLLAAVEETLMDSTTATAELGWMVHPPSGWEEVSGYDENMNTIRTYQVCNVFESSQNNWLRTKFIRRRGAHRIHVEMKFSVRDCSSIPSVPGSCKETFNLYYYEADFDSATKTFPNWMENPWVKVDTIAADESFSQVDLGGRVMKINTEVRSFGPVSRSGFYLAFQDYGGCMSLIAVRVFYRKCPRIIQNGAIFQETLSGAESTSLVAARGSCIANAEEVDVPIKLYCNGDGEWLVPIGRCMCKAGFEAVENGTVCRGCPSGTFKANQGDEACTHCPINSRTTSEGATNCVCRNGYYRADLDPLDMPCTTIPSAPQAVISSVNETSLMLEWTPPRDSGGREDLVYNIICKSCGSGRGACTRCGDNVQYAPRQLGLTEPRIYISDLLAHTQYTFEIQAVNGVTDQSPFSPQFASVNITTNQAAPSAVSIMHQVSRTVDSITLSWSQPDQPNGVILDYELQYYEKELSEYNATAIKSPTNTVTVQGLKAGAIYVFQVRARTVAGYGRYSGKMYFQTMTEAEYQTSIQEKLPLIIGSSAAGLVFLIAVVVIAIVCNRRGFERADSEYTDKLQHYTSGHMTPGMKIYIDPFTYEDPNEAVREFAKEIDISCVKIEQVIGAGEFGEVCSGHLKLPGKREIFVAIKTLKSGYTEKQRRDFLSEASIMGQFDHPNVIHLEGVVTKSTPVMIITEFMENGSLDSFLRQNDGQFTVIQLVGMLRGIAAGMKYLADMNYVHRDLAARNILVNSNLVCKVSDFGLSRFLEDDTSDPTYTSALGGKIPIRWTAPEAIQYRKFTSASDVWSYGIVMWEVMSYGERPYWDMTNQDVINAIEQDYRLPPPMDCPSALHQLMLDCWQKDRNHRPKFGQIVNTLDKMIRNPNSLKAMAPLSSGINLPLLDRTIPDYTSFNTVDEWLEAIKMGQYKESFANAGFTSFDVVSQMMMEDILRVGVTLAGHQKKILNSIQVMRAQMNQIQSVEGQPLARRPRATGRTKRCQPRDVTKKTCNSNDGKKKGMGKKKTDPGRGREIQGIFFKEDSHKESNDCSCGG

| Sequence | phosphorylation enrichment (EPHB2) | phosphorylation enrichment (Fes) | phosphorylation enrichment (Fyn) | phosphorylation enrichment (Jak2) | phosphorylation enrichment (MERTK) | phosphorylation enrichment (FGFR3) | phosphorylation enrichment (Fer (mouse)) | phosphorylation enrichment (c-Abl (mouse)) | phosphorylation enrichment (FGFR1) | phosphorylation enrichment (AncSZ) | phosphorylation enrichment (c-Src) | phosphorylation enrichment (Hck) | phosphorylation enrichment (EPHB1) | SH2 binding enrichment (SHP2-C SH2) | SH2 binding enrichment (c-Src SH2) | SH2 binding enrichment (Grb2 SH2) |
| --- | --- | --- | --- | --- | --- | --- | --- | --- | --- | --- | --- | --- | --- | --- | --- | --- |
| KHCEDYVFSFN [DSC1_Y846_C848F_YF] | 0.739 | 1.21 | 0.472 | 1.04 | 0.471 | 1.84 | 0.562 | 0.791 | 1.82 | 1.75 | 1.75 | 0.499 | 0.776 | 0.817 | 0.55 | 0.941 |
| KHMADYPDCKY [SOX11_Y113_Y116C] | 0.783 | 1.01 | 0.251 | 1.07 | 0.375 | 1.31 | 0.504 | 1.36 | 0.635 | 0.65 | 0.368 | 0.55 | 0.483 | 1.59 | 1.92 | 0.863 |
| KIKLNYTLPQD [NRAP_Y523_N519I] | 0.447 | 0.88 | 0.454 | 0.721 | 0.53 | 0.623 | 0.513 | 0.531 | 0.48 | 0.965 | 0.454 | 0.462 | 0.49 | 0.751 | 0.774 | 0.965 |
| KKILCYIQGGS [HYDIN_Y4610_N4606K] | 0.609 | 1.46 | 0.499 | 1.17 | 0.549 | 0.758 | 0.58 | 1.07 | 0.439 | 1.31 | 0.411 | 0.521 | 0.611 | 0.495 | 0.459 | 0.802 |
| KLKEKYEKDIA [HMGB1_Y155] | 0.495 | 0.82 | 0.537 | 0.784 | 0.663 | 0.452 | 0.55 | 0.647 | 0.536 | 0.704 | 0.507 | 0.473 | 0.418 | 0.769 | 0.656 | 1.23 |
| KLMTEYKRRKQ [ARFGEF3_Y2029_K2031R] | 0.496 | 0.572 | 0.544 | 0.458 | 0.536 | 0.646 | 0.573 | 0.503 | 0.677 | 0.661 | 0.526 | 0.521 | 0.477 | 0.636 | 0.342 | 0.642 |
| KLYRVYCDMNT [FGB_Y269_P265L] | 0.702 | 1.07 | 0.608 | 0.838 | 0.466 | 0.693 | 0.52 | 0.696 | 0.452 | 0.978 | 0.549 | 0.623 | 0.769 | 0.715 | 1.22 | 0.868 |
| KMTGRYEMYAR [UPB1_Y362] | 0.627 | 0.789 | 0.476 | 0.674 | 0.428 | 0.487 | 0.438 | 0.54 | 0.523 | 0.828 | 0.416 | 0.549 | 0.58 | 0.909 | 1.12 | 1.13 |
| KNNDGYIDFAE [MCFD2_Y135_YF] | 0.483 | 1.06 | 0.406 | 0.903 | 0.377 | 0.725 | 0.559 | 0.663 | 0.556 | 0.921 | 0.395 | 0.513 | 0.492 | 0.999 | 14.3 | 0.707 |
| KPFRVYCDMNT [FGB_Y269_YF] | 0.72 | 1.3 | 0.493 | 1.31 | 0.409 | 0.773 | 0.593 | 0.886 | 0.597 | 1.22 | 0.414 | 0.513 | 0.933 | 0.535 | 0.771 | 0.783 |
| KQLGEYKFQNA [ALB_Y425_E420K] | 0.386 | 0.565 | 0.395 | 0.525 | 0.399 | 0.417 | 0.306 | 0.4 | 0.468 | 0.507 | 0.358 | 0.375 | 0.348 | 1.04 | 0.565 | 0.897 |
| KRAAIYNPVIF [RHO_Y301_S297R_YF] | 0.55 | 0.841 | 1.91 | 0.738 | 2.69 | 0.541 | 10.4 | 0.741 | 0.492 | 0.725 | 2.22 | 4.07 | 0.432 | 1.19 | 0.854 | 1.01 |
| KRYRIYHLATS [BRCA2_Y3009] | 0.461 | 0.491 | 0.445 | 0.336 | 0.322 | 0.509 | 0.313 | 0.402 | 0.487 | 0.564 | 0.508 | 0.432 | 0.456 | 0.493 | 1.34 | 0.791 |
| KSIEEYLKLVG [RASAL2_Y381] | 0.581 | 0.962 | 0.404 | 0.775 | 0.372 | 0.48 | 0.409 | 0.521 | 0.528 | 0.772 | 0.438 | 0.51 | 0.468 | 1.03 | 0.441 | 0.673 |
| KSPDSYQKILF [ATM_Y1415_L1420F] | 0.464 | 0.517 | 0.484 | 0.6 | 0.585 | 0.427 | 0.338 | 0.511 | 0.509 | 0.567 | 0.632 | 0.406 | 0.468 | 1.75 | 1.96 | 1.26 |
| KTNVSYCGALD [CACNB4_Y103] | 0.508 | 0.834 | 0.381 | 0.754 | 0.389 | 0.643 | 0.46 | 0.745 | 0.494 | 0.778 | 0.469 | 0.503 | 0.564 | 0.726 | 0.551 | 0.9 |
| KTVQDYLKKFY [MMP8_Y36_E38K] | 0.398 | 0.687 | 0.366 | 0.517 | 0.454 | 0.382 | 0.325 | 1.42 | 0.428 | 0.571 | 0.421 | 0.438 | 0.396 | 0.606 | 0.438 | 1 |

| Sequence | phosphorylation enrichment (EPHB2) | phosphorylation enrichment (Fes) | phosphorylation enrichment (Fyn) | phosphorylation enrichment (Jak2) | phosphorylation enrichment (MERTK) | phosphorylation enrichment (FGFR3) | phosphorylation enrichment (Fer (mouse)) | phosphorylation enrichment (c-Abl (mouse)) | phosphorylation enrichment (FGFR1) | phosphorylation enrichment (AncSZ) | phosphorylation enrichment (c-Src) | phosphorylation enrichment (Hck) | phosphorylation enrichment (EPHB1) | SH2 binding enrichment (SHP2-C SH2) | SH2 binding enrichment (c-Src SH2) | SH2 binding enrichment (Grb2 SH2) |
| --- | --- | --- | --- | --- | --- | --- | --- | --- | --- | --- | --- | --- | --- | --- | --- | --- |
| KVGPGYLGSRG [RET_Y826_G830R] | 0.345 | 0.55 | 0.329 | 0.439 | 0.457 | 0.339 | 0.328 | 0.444 | 0.318 | 0.402 | 0.366 | 0.327 | 0.302 | 0.769 | 0.588 | 1 |
| KVMANYMFKAG [MAML2_Y513_YF] | 0.744 | 0.675 | 0.344 | 0.519 | 0.432 | 0.418 | 0.394 | 0.556 | 0.412 | 0.638 | 0.414 | 0.342 | 0.448 | 0.697 | 0.651 | 0.934 |
| KVPCHYDDPGK [FOXG1_Y246_R244C] | 0.527 | 0.943 | 0.437 | 0.717 | 0.412 | 0.598 | 0.86 | 0.707 | 0.412 | 0.827 | 0.443 | 0.793 | 0.469 | 0.838 | 2.01 | 0.906 |
| KVQVSYKGDTK [HSPA1A_Y107_E110D] | 0.36 | 0.598 | 0.372 | 0.5 | 0.414 | 0.378 | 0.328 | 0.615 | 0.425 | 0.491 | 0.473 | 0.392 | 0.299 | 0.676 | 0.525 | 0.949 |
| KVWGIYDCQQP [CYP3A7_Y75] | 2.3 | 1.61 | 7.28 | 1.14 | 4.76 | 0.772 | 2.48 | 0.998 | 0.687 | 1.56 | 4.49 | 6.28 | 6.6 | 0.761 | 0.472 | 0.78 |
| KWHREYNSKFV [RICTOR_Y835_YF] | 0.391 | 0.623 | 0.364 | 0.581 | 0.37 | 0.49 | 0.422 | 0.555 | 0.371 | 0.556 | 0.334 | 0.371 | 0.35 | 1.18 | 1.19 | 1.11 |
| KWRGQYDVANK [BTK_Y425_I429N] | 0.396 | 0.705 | 0.359 | 0.6 | 0.387 | 0.57 | 0.446 | 0.594 | 0.439 | 0.533 | 0.376 | 0.445 | 0.381 | 0.957 | 1.2 | 1.08 |
| KYLENYYDLKK [MMP3_Y41] | 2.77 | 0.99 | 2.24 | 0.782 | 0.709 | 4.8 | 0.513 | 0.736 | 7.68 | 0.922 | 1.15 | 2.16 | 7.15 | 0.73 | 0.775 | 1.02 |
| LADKPYTFEYY [FXN_Y118_D122Y] | 0.719 | 1.08 | 1.77 | 1.25 | 0.52 | 0.969 | 0.833 | 0.802 | 1.08 | 1 | 2.68 | 0.707 | 0.782 | 0.899 | 1.28 | 1.19 |
| LADMNYVHCDL [EPHB2_Y742_R745C] | 0.578 | 0.97 | 0.57 | 0.728 | 0.448 | 1.09 | 0.535 | 0.652 | 0.811 | 1.01 | 0.369 | 0.469 | 0.889 | 0.83 | 0.684 | 0.823 |
| LAGRFYALRSM [CKB_Y174_K177R_YF] | 0.944 | 1.92 | 0.737 | 0.59 | 0.509 | 1.84 | 0.843 | 0.642 | 0.598 | 1.29 | 0.571 | 0.821 | 0.583 | 0.874 | 1.2 | 1.38 |
| LANNEYYFRVC | 0.993 | 1.27 | 0.743 | 1.51 | 0.823 | 3.11 | 0.62 | 0.573 | 3.72 | 1.6 | 0.516 | 0.794 | 0.682 | 0.562 | 0.42 | 0.539 |
| LDPDSYNVFEN [FOXC1_Y159_M161V] | 0.703 | 2.2 | 0.643 | 2.3 | 1.04 | 1.31 | 0.742 | 1.93 | 0.527 | 2.1 | 0.915 | 0.613 | 0.728 | 0.752 | 1.59 | 0.74 |
| LDVDVYGPSVP [NUBPL_Y109] | 0.536 | 1.28 | 1.47 | 0.829 | 0.498 | 0.72 | 1.2 | 1.4 | 0.483 | 1.06 | 1.33 | 1.77 | 0.622 | 0.551 | 0.498 | 0.868 |
| LEITWYPFDVE [RIPOR2_Y316] | 1.05 | 2.12 | 0.751 | 2.3 | 0.461 | 1.55 | 0.827 | 1.25 | 0.679 | 1.49 | 0.704 | 0.691 | 1.21 | 0.884 | 0.801 | 0.961 |
| LERDIYNREEF [HLA-DPB1_Y59_Y57D] | 0.718 | 1.62 | 1.23 | 1.3 | 0.49 | 0.906 | 0.672 | 1.39 | 1.03 | 1.19 | 1.18 | 1.17 | 0.706 | 1.07 | 0.678 | 0.841 |
